Kd data for one molecule are collected here from PMC2647316 (Nucleic Acids Research, 2008).

Holding throughout (test): SPR
On the technique in general: SPR reads the build-up and loss of mass on a sensor chip optically.

One data set concerns the target T1, GkDnaC R332A (Geobacillus kaustophilus HTA426, UniProt Q5KU75 1-454, R332A).
T1 sequence: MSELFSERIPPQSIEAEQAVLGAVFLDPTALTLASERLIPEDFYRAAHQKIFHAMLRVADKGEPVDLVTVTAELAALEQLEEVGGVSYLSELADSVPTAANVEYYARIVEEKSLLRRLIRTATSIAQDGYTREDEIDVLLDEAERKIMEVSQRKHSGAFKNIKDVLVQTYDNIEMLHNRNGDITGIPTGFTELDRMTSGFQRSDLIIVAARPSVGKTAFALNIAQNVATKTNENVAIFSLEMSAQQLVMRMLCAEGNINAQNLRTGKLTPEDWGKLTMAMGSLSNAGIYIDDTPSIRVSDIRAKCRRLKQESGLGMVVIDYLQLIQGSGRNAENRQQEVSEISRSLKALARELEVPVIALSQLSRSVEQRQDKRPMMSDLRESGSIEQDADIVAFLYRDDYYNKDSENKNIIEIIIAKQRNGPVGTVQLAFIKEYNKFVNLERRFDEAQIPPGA

For data set [1], the target named is T2, GkDnaC replicative helicase WT (Geobacillus kaustophilus HTA426, UniProt Q5KU75 1-454).
T2 sequence: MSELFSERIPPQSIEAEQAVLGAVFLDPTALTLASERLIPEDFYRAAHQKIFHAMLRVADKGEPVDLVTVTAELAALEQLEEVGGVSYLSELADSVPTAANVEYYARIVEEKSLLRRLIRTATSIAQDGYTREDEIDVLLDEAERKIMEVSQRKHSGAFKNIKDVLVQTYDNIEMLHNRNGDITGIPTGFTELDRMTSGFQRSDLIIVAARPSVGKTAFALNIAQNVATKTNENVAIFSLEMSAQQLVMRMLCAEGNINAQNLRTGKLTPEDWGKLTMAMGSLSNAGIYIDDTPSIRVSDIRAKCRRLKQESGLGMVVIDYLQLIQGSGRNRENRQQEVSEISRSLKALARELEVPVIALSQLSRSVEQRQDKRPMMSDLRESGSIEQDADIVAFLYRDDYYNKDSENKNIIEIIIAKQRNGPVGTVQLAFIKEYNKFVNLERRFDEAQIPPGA

The target of another data set is T3, GkDnaC R145A (Geobacillus kaustophilus HTA426, UniProt Q5KU75 1-454, R145A).
T3 sequence: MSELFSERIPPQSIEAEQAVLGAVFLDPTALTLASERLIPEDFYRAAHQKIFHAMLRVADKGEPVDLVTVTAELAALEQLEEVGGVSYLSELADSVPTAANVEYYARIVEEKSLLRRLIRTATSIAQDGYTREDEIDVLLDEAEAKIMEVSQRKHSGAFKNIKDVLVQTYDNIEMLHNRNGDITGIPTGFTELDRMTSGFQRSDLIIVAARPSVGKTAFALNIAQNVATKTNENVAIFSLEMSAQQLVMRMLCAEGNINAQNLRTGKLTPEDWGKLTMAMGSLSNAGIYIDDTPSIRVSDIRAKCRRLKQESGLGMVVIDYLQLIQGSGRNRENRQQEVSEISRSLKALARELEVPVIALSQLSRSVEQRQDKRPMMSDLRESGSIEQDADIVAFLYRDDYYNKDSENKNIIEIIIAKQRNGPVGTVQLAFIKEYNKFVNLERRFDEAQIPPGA

Another data set deals with T4, GkDnaC R344A (Geobacillus kaustophilus HTA426, UniProt Q5KU75 1-454, R344A).
T4 sequence: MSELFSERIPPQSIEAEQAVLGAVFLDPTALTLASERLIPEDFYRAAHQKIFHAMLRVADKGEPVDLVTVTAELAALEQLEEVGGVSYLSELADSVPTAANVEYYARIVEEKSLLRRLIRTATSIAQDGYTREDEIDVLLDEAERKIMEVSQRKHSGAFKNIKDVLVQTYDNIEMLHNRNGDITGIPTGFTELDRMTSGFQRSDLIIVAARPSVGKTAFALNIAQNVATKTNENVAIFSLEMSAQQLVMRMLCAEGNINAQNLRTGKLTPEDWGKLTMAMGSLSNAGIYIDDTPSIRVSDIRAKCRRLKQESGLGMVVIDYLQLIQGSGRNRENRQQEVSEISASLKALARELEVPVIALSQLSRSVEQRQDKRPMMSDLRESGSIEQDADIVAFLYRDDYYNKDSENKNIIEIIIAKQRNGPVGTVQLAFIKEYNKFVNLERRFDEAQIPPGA

B1: 5'Bio-(dT)30 (ssDNA)
DNA: TTTTTTTTTTTTTTTTTTTTTTTTTTTTTT
Usually Kd stands for the equilibrium constant for the complex coming apart. As for B1, the Kd came out at 6.64 µM with GkDnaC R332A, 0.0469 µM in data set [1], 1.39 µM with GkDnaC R145A and 17.9 µM in the data set with GkDnaC R344A.
